We go through three molecules from article PMC9951844 (Nature Communications, 2023).

Broadly, the stoichiometry N is the number of molecules, sites or subunits per partner or assembly.

The target in one assay is S-R/6P/Omicron BA.1 (SARS-CoV-2 Omicron BA.1 (B.1.1.529), S371L | S373P | S375F | K417N | A484 | proline substitution at residue 817 | …). The assay can be described thus: cryo-EM structure. The following applies: both partners purified.
Another assay concerns the target S-GSAS/6P/Wildtype (SARS-CoV-2 hCoV-19/Wuhan/WIV04/2019, UniProt P0DTC2, proline substitution at residue 817 | proline substitution at residue 892 | …). The assay can be described thus: cryo-EM structure. The following applies: both partners purified.

B1: YB13-292 Fab (Fab, V domains shown)
VH: EVQLVESGGGLVKPGGSLRLSCAASGFSFITYNMNWVRQAPGKGLEWVSSISSNILSSTSYIYYADSVKGRFTISRDDAANSLFLQMNSLRVEDTAQYYCARTRSRSVRNCTSATCPVDAFDLWGQGTMVIVSS
VL: DIVLTQSPLSLPVTPGEPASISCRSSQSLLRSNGYNYLDWYLQKPGQSPHLLIYLGSNRASGVPDRFSGSGSGTDFTLKISRVEAEDVGVYYCMQALQTPYTFGQGTNLEIK
On to B1, for which the “stoichiometry N” value in the assay with S-R/6P/Omicron BA.1 is 3 Fabs per spike trimer (3:3 protomer:Fab).

B2: R1-32 Fab (Fab, V domains shown)
VH: EVQLVESGAEVKKPGSSVKVSCKASGGTFSSYAISWVRQAPGQGLEWMGGIIPILGIANYAQKFQGRVTITADKSTSTAYMELSSLRSEDTAVYYCARENGYSGYGAAANFDLWGRGTLVTVSS
VL: QSVLTQPPSVSGAPGQRVTISCTGSSSNIGAGYDVHWYQQLPGTAPKLLIYGNSNRPSGVPDRFSGSKSGTSASLAITGLQAEDEADYYCQSYDSSLSGSVFGGGTKLTVL
As for B2, in the assay with S-GSAS/6P/Wildtype, the “stoichiometry N” value was 3 Fabs per spike trimer (3:3:3).

B3: YB9-258 Fab (Fab, V domains shown)
VH: EVQLVESGGGLIQPGGSLRLSCAASGLTVSSNYMHWVRQAPGKGLEWVSVLYAGGSAFYADSVKGRFTISRNNSKNTLYLQMNSLRAEDTAIYYCARGLGDYLDSWGQGTLVTVSS
VL: DIQMTQSPSSVSASVGDRVTITCRASQGIGSWLAWYQQKPGKAPQLLIYAASTLQSGVPPRFSGSGSGTDFTLTITSLQPEDFASYYCQQANSVLALTFGGGTKVEIK
For the molecule B3, the “stoichiometry N” value with S-GSAS/6P/Wildtype is 3 Fabs per spike trimer (3:3:3).
